In patent US20240294623A1 (SCHOLAR ROCK, published 2024):
Where a chain is given by its changes, count along the chain named.

B1: Ab21 (antibody, V domains shown)
VH: EVQLVESGGGLVQPGGSLRLSCAASGFTFSSFSMDWVRQAPGKGLEWVSYISPDASTIYYADSVKGRFTISRDNAKNSLYLQMNSLRAEDTAVYYCARGVLDYGDMLDPWGQGTLVTVSS
VL: DIQMTQSPSSLSASVGDRVTITCQASQDITNYLNWYQQKPGKAPKLLIYDASNLETGVPSRFSGSGSGTDFTFTISSLQPEDIATYYCQQADNHPPWTFGGGTKVEIK
B2: Ab5 (antibody, V domains shown)
VH: B1 VH
VL: B1 VL
B3: Ab31 (antibody, V domains shown)
VH: B1 VH with S78T, G99A
VL: B1 VL
B4: Ab27 (antibody, V domains shown)
VH: B1 VH with S31F, F32Y, S33A, D35N
VL: B1 VL
B5: Ab28 (antibody, V domains shown)
VH: B1 VH with A97V
VL: B1 VL
B6: Ab24 (antibody, V domains shown)
VH: B1 VH with G16R, S33A, D35Y
VL: B1 VL
B7: Ab30 (antibody, V domains shown)
VH: B1 VH with V100T
VL: B1 VL
B8: Ab29 (antibody, V domains shown)
VH: B1 VH with G16R, S33A, D35N, D62G, A97V, G99A
VL: B1 VL
B9: Ab4 (antibody, V domains shown)
VH: B1 VH with F32Y, D35N, P53S, D54S, A55S
VL: B1 VL
B10: Ab25 (antibody, V domains shown)
VH: B1 VH with S30G
VL: B1 VL
B11: Ab32 (antibody, V domains shown)
VH: B1 VH with D35N, D54S, S56D, S78T, L101W, Y103M
VL: B1 VL
B12: Ab23 (antibody, V domains shown)
VH: B1 VH with D35N, D54S, S56D, S78T
VL: B1 VL
B13: Ab26 (antibody, V domains shown)
VH: B1 VH with S78T
VL: B1 VL
B14: Ab22 (antibody, V domains shown)
VH: B1 VH with S30G, D35N, S52H, P53S
VL: B1 VL
B15: Ab33 (antibody, V domains shown)
VH: B1 VH with D35N, D54S, S56D, S78T, R98H
VL: B1 VL
B16: Ab46 (hIgG4) (antibody, V domains shown)
VH: EVQLLESGGGLVQPGGSLRLSCAASGFTFADYAMTWVRQAPGKGLEWVSAISGSGAATYFADSVKGRFTISRDNSKNTLYLQMNSLRAEDTAVYYCARVSSGHWDYDYWGQGTLVTVSS
VL: DIQLTQSPSSLSASVGDRVTITCRASQSISSYLNWYQQKPGKAPKLLIYAASGLESGVPSRFSGSGSGTDFTLTISSLQPEDFATYYCQQTYGVPLTFGGGTKVEIK
B17: Ab3 (antibody, V domains shown)
VH: B16 VH with A30R, D31N, T35S, A50S, A56G, F60Y, Y106F
VL: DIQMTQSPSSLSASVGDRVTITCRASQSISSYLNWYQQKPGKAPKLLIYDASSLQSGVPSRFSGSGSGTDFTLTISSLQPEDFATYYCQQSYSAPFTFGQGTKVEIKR

How the values were obtained:
hLTBP1-proTGFβ1 [1] = biological target: T1, hLTBP1-proTGFβ1 (human, UniProt Q14766 347-1721; P01137 30-390, limits assumed); assay: BLI (Octet)
T1 construct: Large latent complex (LLC): proTGFβ1 dimer disulfide-linked to one presenting molecule; recombinant, purified, biotinylated in BLI/SPR; The same id is used for the complex made by transfected cells in the reporter assays; also called human LTBP1-proTGFβ1 complex; LTBP1-ProTGFb1
T1 sequence (Q14766 347-1721 limits assumed, chain 1 of 2): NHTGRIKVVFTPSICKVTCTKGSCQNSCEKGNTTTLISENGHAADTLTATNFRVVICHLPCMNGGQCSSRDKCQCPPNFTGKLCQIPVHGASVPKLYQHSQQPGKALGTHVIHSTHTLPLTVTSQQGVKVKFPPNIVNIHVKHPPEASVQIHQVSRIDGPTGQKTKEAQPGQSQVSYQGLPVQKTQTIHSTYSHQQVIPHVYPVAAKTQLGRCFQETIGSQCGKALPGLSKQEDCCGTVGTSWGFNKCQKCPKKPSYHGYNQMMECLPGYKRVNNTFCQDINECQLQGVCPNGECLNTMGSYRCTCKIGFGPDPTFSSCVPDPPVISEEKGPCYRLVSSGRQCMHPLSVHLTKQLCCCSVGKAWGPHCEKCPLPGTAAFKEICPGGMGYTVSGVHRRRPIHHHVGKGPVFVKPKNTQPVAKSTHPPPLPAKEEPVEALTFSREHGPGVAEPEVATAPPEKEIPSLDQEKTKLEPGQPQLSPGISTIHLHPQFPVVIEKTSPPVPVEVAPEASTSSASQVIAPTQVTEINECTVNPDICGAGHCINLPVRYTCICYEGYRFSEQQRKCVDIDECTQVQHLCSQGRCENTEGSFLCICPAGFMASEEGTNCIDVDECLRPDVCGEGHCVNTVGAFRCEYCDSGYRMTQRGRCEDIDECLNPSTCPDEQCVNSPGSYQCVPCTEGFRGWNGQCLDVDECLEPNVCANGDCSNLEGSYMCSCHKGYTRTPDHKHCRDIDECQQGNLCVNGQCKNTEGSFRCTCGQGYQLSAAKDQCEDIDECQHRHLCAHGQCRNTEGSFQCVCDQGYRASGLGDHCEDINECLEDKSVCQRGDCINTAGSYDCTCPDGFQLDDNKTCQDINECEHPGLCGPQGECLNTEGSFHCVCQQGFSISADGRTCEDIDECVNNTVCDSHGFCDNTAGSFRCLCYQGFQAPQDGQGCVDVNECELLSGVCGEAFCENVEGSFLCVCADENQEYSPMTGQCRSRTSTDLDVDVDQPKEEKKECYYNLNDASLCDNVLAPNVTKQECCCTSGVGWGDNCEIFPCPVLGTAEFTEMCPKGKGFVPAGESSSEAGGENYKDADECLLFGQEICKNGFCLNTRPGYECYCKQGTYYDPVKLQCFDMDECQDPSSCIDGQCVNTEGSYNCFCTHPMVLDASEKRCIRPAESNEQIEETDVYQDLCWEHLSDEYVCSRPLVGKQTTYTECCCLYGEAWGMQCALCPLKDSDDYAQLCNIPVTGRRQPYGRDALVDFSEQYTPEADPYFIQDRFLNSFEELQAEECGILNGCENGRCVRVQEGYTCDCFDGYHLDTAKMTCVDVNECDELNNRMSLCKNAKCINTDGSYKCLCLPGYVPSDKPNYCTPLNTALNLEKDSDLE
T1 sequence (P01137 30-390 limits assumed, chain 2 of 2): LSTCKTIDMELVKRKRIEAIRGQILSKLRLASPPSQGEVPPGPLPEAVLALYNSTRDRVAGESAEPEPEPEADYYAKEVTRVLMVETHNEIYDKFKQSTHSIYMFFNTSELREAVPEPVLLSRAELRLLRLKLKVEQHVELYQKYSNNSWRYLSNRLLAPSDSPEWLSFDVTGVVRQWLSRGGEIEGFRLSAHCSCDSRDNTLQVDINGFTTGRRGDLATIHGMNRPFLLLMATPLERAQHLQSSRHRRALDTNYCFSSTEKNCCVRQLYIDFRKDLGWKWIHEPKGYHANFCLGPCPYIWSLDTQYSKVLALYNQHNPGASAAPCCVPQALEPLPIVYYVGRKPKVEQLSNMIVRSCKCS

hGARP-proTGFβ1 [2] = biological target: T2, hGARP-proTGFβ1 (human, UniProt Q14392 18-627; P01137 30-390, limits assumed); assay: BLI (Octet)
T2 construct: LLC as m1; Same id used for the cell-surface complex in reporter assays; also called human GARP-proTGFβ1 complex; GARP-ProTGFb1
T2 sequence (Q14392 18-627 limits assumed, chain 1 of 2): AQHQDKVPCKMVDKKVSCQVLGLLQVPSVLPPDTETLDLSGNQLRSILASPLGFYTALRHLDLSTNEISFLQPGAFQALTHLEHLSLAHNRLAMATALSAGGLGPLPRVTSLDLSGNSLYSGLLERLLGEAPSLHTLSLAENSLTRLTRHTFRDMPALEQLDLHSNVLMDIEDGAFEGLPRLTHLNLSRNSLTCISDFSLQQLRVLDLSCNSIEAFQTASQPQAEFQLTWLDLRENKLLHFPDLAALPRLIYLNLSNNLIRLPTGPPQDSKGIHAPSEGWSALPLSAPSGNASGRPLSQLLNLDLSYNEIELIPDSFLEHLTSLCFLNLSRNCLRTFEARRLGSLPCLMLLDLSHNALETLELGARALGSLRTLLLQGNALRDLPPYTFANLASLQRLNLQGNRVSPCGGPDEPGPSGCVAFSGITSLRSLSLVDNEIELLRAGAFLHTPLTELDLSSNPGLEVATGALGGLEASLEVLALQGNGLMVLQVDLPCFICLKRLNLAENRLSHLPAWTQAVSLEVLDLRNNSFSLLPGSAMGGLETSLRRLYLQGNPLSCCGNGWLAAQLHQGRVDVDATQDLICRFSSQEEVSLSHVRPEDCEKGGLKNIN
T2 sequence (P01137 30-390 limits assumed, chain 2 of 2): as the sequence (P01137 30-390 limits assumed, chain 2 of 2) above

hLTBP3-proTGFβ1 [3] = biological target: T3, hLTBP3-proTGFβ1 (human, UniProt Q9NS15 44-1303; P01137 30-390, limits assumed); assay: BLI (Octet)
T3 construct: LLC as m1; Same id used for the cell-made complex in reporter assays; also called human LTBP3-proTGFβ1 complex; LTBP3-ProTGFb1
T3 sequence (Q9NS15 44-1303 limits assumed, chain 1 of 2): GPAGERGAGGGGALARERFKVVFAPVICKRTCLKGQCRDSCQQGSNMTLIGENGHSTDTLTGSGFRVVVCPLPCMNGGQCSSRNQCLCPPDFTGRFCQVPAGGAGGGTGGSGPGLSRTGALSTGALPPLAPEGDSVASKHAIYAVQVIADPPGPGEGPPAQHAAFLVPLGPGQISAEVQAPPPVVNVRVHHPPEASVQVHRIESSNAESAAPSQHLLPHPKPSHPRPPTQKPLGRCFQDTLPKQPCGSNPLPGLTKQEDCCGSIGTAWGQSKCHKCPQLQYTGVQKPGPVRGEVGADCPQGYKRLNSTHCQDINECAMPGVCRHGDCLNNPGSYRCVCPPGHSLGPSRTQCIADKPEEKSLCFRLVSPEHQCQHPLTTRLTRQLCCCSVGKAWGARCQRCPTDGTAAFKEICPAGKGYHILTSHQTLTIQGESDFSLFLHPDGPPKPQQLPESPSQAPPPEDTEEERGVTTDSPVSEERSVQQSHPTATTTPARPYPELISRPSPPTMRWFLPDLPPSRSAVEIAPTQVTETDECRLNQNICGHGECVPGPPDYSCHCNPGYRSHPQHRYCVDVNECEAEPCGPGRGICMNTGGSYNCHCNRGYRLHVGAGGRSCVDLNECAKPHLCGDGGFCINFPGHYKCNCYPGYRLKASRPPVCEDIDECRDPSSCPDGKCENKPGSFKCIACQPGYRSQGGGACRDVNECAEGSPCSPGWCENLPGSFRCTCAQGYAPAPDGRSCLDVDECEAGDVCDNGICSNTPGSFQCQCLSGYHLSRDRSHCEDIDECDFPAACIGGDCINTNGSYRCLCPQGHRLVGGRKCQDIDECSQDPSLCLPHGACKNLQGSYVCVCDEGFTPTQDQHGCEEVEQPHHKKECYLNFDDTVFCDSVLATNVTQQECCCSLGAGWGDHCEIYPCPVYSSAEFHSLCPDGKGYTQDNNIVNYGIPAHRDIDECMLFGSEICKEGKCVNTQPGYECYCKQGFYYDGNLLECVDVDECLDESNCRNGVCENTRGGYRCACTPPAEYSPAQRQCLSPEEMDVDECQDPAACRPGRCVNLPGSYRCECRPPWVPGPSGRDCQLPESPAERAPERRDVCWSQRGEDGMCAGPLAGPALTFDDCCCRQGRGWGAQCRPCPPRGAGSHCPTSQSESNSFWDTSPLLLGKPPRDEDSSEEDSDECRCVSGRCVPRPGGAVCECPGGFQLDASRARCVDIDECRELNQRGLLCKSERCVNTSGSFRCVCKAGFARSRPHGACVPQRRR
T3 sequence (P01137 30-390 limits assumed, chain 2 of 2): as the sequence (P01137 30-390 limits assumed, chain 2 of 2) above

hLRRC33-proTGFβ1 [4] = biological target: T4, hLRRC33-proTGFβ1 (human, UniProt Q86YC3 19-650; P01137 30-390, limits assumed); assay: BLI (Octet)
T4 construct: LLC as m1; Same id used for the cell-surface complex in reporter assays; also called human LRRC33-proTGFβ1 complex; LRRC33-ProTGFb1
T4 sequence (Q86YC3 19-650 limits assumed, chain 1 of 2): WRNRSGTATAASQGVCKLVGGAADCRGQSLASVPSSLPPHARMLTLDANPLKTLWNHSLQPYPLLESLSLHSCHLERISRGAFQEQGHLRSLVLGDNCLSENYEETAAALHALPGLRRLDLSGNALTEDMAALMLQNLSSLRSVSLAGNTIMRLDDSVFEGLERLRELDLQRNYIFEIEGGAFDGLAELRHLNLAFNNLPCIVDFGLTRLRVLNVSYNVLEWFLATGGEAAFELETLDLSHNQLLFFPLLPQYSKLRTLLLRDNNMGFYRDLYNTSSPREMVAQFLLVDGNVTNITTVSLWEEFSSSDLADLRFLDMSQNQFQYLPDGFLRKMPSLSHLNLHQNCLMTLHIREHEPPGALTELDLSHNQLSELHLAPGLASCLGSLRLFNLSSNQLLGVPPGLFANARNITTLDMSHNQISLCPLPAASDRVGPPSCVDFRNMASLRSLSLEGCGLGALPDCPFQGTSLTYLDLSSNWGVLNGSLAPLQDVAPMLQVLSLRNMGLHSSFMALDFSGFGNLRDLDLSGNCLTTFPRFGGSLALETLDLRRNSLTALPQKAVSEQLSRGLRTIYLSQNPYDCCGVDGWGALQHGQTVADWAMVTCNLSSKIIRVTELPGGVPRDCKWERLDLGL
T4 sequence (P01137 30-390 limits assumed, chain 2 of 2): as the sequence (P01137 30-390 limits assumed, chain 2 of 2) above

hLTBP1-proTGFβ1 [5] = biological target: T1, hLTBP1-proTGFβ1; assay: cell-based or functional assay
hGARP-proTGFβ1 [6] = biological target: T2, hGARP-proTGFβ1; assay: cell-based or functional assay
hLTBP3-proTGFβ1 [7] = biological target: T3, hLTBP3-proTGFβ1; assay: cell-based or functional assay
hLRRC33-proTGFβ1 [8] = biological target: T4, hLRRC33-proTGFβ1; assay: cell-based or functional assay
hLTBP1-proTGFβ1 [9] = biological target: T1, hLTBP1-proTGFβ1; assay: MSD-SET, hIgG4
Procedure: (§1) For solution equilibrium titration-based binding assays, protein complexes that comprise one of the presenting molecules such as those shown above may be employed as antigen (presenting molecule-TGFβ1 complex, or an LLC). Test antibodies are allowed to form antigen-antibody complex in solution. Antigen-antibody reaction mixtures are incubated to allow an equilibrium to be reached; the amount of the antigen-antibody complex present in the assay reactions can be measured by suitable means well known in the art. As compared to BLI-based assays, SET-based assays are less affected by on/off rates of the antigen-antibody complex, allowing sensitive detection of very high affinity interactions.

hGARP-proTGFβ1 [10] = biological target: T2, hGARP-proTGFβ1; assay: MSD-SET, hIgG4
Procedure: as §1

hLTBP3-proTGFβ1 [11] = biological target: T3, hLTBP3-proTGFβ1; assay: MSD-SET, hIgG4
Procedure: as §1

hLRRC33-proTGFβ1 [12] = biological target: T4, hLRRC33-proTGFβ1; assay: MSD-SET, hIgG4
Procedure: as §1

[13] = biological target: endogenous LTBP-proTGFβ1 of human LN229 cells (human, UniProt P01137 30-390); assay: cell-based or functional assay
Sequence of endogenous LTBP-proTGFβ1 of human LN229 cells (P01137 30-390): as the sequence (P01137 30-390 limits assumed, chain 2 of 2) above

hLTBP1-proTGFβ1 [14] = biological target: T1, hLTBP1-proTGFβ1; assay: cell-based or functional assay; remark: listed apart in the source
hGARP-proTGFβ1 [15] = biological target: T2, hGARP-proTGFβ1; assay: cell-based or functional assay; remark: listed apart in the source
hLTBP3-proTGFβ1 [16] = biological target: T3, hLTBP3-proTGFβ1; assay: cell-based or functional assay; remark: listed apart in the source
hLRRC33-proTGFβ1 [17] = biological target: T4, hLRRC33-proTGFβ1; assay: cell-based or functional assay; remark: listed apart in the source

Binder | Kd (hLTBP1-proTGFβ1 [1]) | Kd (hGARP-proTGFβ1 [2]) | Kd (hLTBP3-proTGFβ1 [3]) | Kd (hLRRC33-proTGFβ1 [4]) | IC50, reporter cell assay (hLTBP1-proTGFβ1 [5]) | IC50, reporter cell assay (hGARP-proTGFβ1 [6]) | IC50, reporter cell assay (hLTBP3-proTGFβ1 [7]) | IC50, reporter cell assay (hLRRC33-proTGFβ1 [8]) | Kd (hLTBP1-proTGFβ1 [9]) | Kd (hGARP-proTGFβ1 [10]) | Kd (hLTBP3-proTGFβ1 [11]) | Kd (hLRRC33-proTGFβ1 [12]) | mAb IC50 [13] | IC50, in vitro potency assay (hLTBP1-proTGFβ1 [14]) | IC50, in vitro potency assay (hGARP-proTGFβ1 [15]) | IC50, in vitro potency assay (hLTBP3-proTGFβ1 [16]) | IC50, in vitro potency assay (hLRRC33-proTGFβ1 [17])
B1 | 0.225 nM | 0.833 nM | 0.268 nM | 0.455 nM | 1.6 nM | 0.4 nM | 0.8 nM | 0.6 nM |  |  |  |  |  |  |  |  | 
B2 |  |  |  |  | 1.3 nM | 0.1 nM | 1 nM | 0.6 nM |  |  |  |  |  |  |  |  | 
B3 | 0.236 nM | 0.581 nM | 0.181 nM | 0.41 nM |  |  |  |  | 0.019 nM | 0.019 nM | 0.014 nM | 0.096 nM |  |  |  |  | 
B4 | 0.178 nM | 0.424 nM | 0.238 nM | 0.299 nM |  |  |  |  |  |  |  |  |  |  |  |  | 
B5 | 0.34 nM | 0.797 nM | 0.316 nM | 0.409 nM |  |  |  |  |  |  |  |  |  |  |  |  | 
B6 | 0.246 nM | 0.665 nM | 0.198 nM | 0.41 nM |  |  |  |  | 0.024 nM | 0.019 nM | 0.021 nM | 0.18 nM |  |  |  |  | 
B7 | 0.332 nM | 0.833 nM | 0.261 nM | 0.535 nM |  |  |  |  | 0.031 nM | 0.022 nM | 0.026 nM | 0.14 nM |  |  |  |  | 
B8 | 0.189 nM | 0.307 nM | 0.121 nM | 0.302 nM | 0.5 nM | 0.3 nM | 0.8 nM | 0.5 nM | 0.012 nM | 0.0055 nM | 0.011 nM | 0.043 nM |  |  |  |  | 
B9 |  |  |  |  | 5.2 nM | 0.8 nM | 5.6 nM | 3.5 nM | 4.6 nM | 2.5 nM | 5.5 nM | 2.1 nM |  |  |  |  | 
B10 | 0.217 nM | 0.488 nM | 0.152 nM | 0.409 nM | 6.1 nM | 0.4 nM | 0.51 nM | 0.7 nM |  |  |  |  |  |  |  |  | 
B11 | 0.269 nM | 0.496 nM | 0.215 nM | 0.698 nM |  |  |  |  | 0.037 nM | 0.015 nM | 0.026 nM | 0.087 nM |  |  |  |  | 
B12 | 0.417 nM | 1.34 nM | 0.468 nM | 0.455 nM | 0.8 nM | 0.3 nM | 0.9 nM | 0.6 nM |  |  |  |  |  |  |  |  | 
B13 | 0.221 nM | 0.625 nM | 0.173 nM | 0.36 nM | 0.7 nM | 0.3 nM | 0.7 nM | 0.3 nM | 0.028 nM | 0.014 nM | 0.023 nM | 0.13 nM |  |  |  |  | 
B14 | 0.318 nM | 0.974 nM | 0.329 nM | 0.415 nM |  |  |  |  | 0.05 nM | 0.027 nM | 0.033 nM | 0.2 nM |  |  |  |  | 
B15 | 0.179 nM | 0.265 nM | 0.111 nM | 0.339 nM | 1.6 nM | 0.2 nM | 1.1 nM | 0.7 nM | 0.011 nM | 0.0078 nM | 0.007 nM | 0.046 nM |  |  |  |  | 
B16 |  |  |  |  |  |  |  |  |  |  |  |  | 0.95 nM |  |  |  | 
B17 | 0.47 nM | 17.3 nM | 0.459 nM | 8.52 nM |  |  |  |  | 13 nM | 28 nM | 16.2 nM | 35 nM |  | 24.3 nM | 0.981 nM | 10.4 nM | 0.858 nM
